Drawing on patent publication EP2559758A1, “Modified glyceraldehyde-3-phosphate dehydrogenase from corynebacterium glutamicum and uses thereof” (Technische Universität Hamburg-Harburg, priority 2011, dated 2013), this text covers Km, kcat and kcat/Km for 8 proteins.

Positions count from the first letter of the chain named. Names may count otherwise.

Substrate in data set [1]: NC(=O)c1ccc[n+]([C@@H]2O[C@H](COP(=O)(O)OP(=O)(O)OC[C@H]3O[C@@H](n4cnc5c(N)ncnc54)[C@H](O)[C@@H]3O)[C@@H](O)[C@H]2O)c1
Kind of data set: GAPDH enzyme activity, coenzyme kinetics (NAD(P)H absorbance at 340 nm). In kind it is biochemical, C. glutamicum. Conditions: coenzyme varied, 25°C, pH 8.5, 1.5 mM glyceraldehyde-3-phosphate, 50 mM Na2HPO4, mean ± S.D. On the procedure:
(§1) The above recombinant E. coli strains were cultured at 37°C in LB medium containing 100 mg/L kanamycine until an OD600 of 0.6 was reached. Then, (isopropyl-beta-D-thiogalactopyranoside (IPTG) was added to the medium to a final concentration of 0.1 mM, and the bacteria were cultured at 20°C for another 12-14 h. The E. coli cells were then harvested and washed and suspended in the buffer of 50 mM Na2HPO4 (pH 7.5), 0.2 mM EDTA and 0.1 mM dithiothreitol. Suspended cells were disrupted by sonication and centrifuged at 13.000 rpm for 1 h. The supernatant was purified by use of a Ni^2+ NTA column (GE Healthcare Bio-Sciences, Piscataway, NJ).
(§2) The enzyme activity of glyceraldehyde-3-phosphate dehydrogenase was determined by monitoring the change of NAD(P)H in absorbance at 340 nm at 25°C using a Multiskan® spectrophotometer (Thermo Scientific, Germany). Initial rate measurements were carried out in 50 mM triethanolamine hydrochloride buffer (pH 8.5), 0.2 mM EDTA, 50 mM Na2HPO4, 1.5 mM glyceraldehyde-3-phosphate (Clermont et al., 1993). When saturation could be reached, kinetic parameters were obtained from activity measurements with coenzyme concentrations ranging from 0.1 Km to 10 Km. Each rate measurement was run in triplicate. One unit of enzyme activity corresponds to one µmol of NAD(P)H formed per minute. Kinetic constants were obtained from non-linear regression data analysis and expressed as mean ± S.D.
(§3) The kinetic parameters determined for wild-type and mutated forms of glyceraldehyde-3-phosphate dehydrogenase are shown in Table 1. It can be seen that coenzyme specificity of glyceraldehyde-3-phosphate has been changed from NAD to NADP by the introduction of mutations at amino positions 35, 36, 37 and 192. More specifically, mutants comprising amino acid exchanges D35G/L36T/T37K, D35G/L36T/P192S, D35G/L36R/P192S, or D35G/L36T/T37K/P192S show a high catalytic efficiency and can utilize both NAD^+ and NADP^+. Table 1: Kinetic parameters of wild-type and mutated glyceraldehyde-3-phosphate dehydrogenase

Substrate in data set [2]: NC(=O)c1ccc[n+]([C@@H]2O[C@H](COP(=O)(O)OP(=O)(O)OC[C@H]3O[C@@H](n4cnc5c(N)ncnc54)[C@H](OP(=O)(O)O)[C@@H]3O)[C@@H](O)[C@H]2O)c1
The description is as above. The note with it: coenzyme varied, 25°C, pH 8.5, 1.5 mM glyceraldehyde-3-phosphate, 50 mM Na2HPO4, mean ± S.D. In kind it is biochemical, C. glutamicum. On the procedure:
as §1, §2, §3

The Km is the concentration of substrate that gives half-maximal velocity. By kcat is commonly meant the number of substrate molecules converted per active site and unit of time at saturation.

B1: C. glutamicum glyceraldehyde-3-phosphate dehydrogenase (gapA) variant D35G/L36T/T37K (Corynebacterium glutamicum ATCC 13032; D35G/L36T/T37K) (protein)
chain: MTIRVGINGFGRIGRNFFRAVLERSDDLEVVAVNGTKDNKTLSTLLKFDSIMGRLGQEVEYDDDSITVGGKRIAVYAERDPKNLDWAAHNVDIVIESTGFFTDANAAKAHIEAGAKKVIISAPASNEDATFVYGVNHESYDPENHNVISGASCTTNCLAPMAKVLNDKFGIENGLMTTVHAYTGDQRLHDAPHRDLRRARAAAVNIVPTSTGAAKAVALVLPELKGKLDGYALRVPVITGSATDLTFNTKSEVTVESINAAIKEAAVGEFGETLAYSEEPLVSTDIVHDSHGSIFDAGLTKVSGNTVKVVSWYDNEWGYTCQLLRLTELVASKL
notes: His-tag (inferred: pET-28a+ NdeI cloning, Ni-NTA purification) (N); His-tag (inferred: reverse primer has no stop codon and reads in frame into the vector's C-terminal His-tag) (C); made in house; host or cells: E. coli BL21 (DE3) CodonPlus RIPL
As to B1, in data set [1] (other: D35G/L36T/T37K), the Km worked out at 470 ± 32 µM, the kcat is 4.2 ± 0.55 s⁻¹ and the kcat/Km is 536 ± 48 mM/min. Besides, in data set [2] (other: D35G/L36T/T37K), the Km is 100 ± 12 µM, the turnover number (kcat) amounted to 8 ± 0.6 s⁻¹ and the kcat/Km turned out to be 4800 ± 232 mM/min.

B2: C. glutamicum glyceraldehyde-3-phosphate dehydrogenase (gapA) variant D35G/L36T/T37K/P192S (Corynebacterium glutamicum ATCC 13032; D35G/L36T/P192S/T37K) (protein)
chain: B1 chain with P192S
notes: as for B1
Take B2: in data set [1] (other: D35G/L36T/T37K/P192S), the Km was 100 ± 14 µM, the kcat worked out at 2.73 ± 0.2 s⁻¹ and the kcat/Km was 1640 ± 108 mM/min. Moreover, in data set [2] (other: D35G/L36T/T37K/P192S), the Km was 70 ± 3 µM, the kcat came to 7.13 ± 0.75 s⁻¹ and the kcat/Km was determined as 5868 ± 352 mM/min.

B3: C. glutamicum glyceraldehyde-3-phosphate dehydrogenase (gapA) variant D35G/L36T (Corynebacterium glutamicum ATCC 13032; D35G/L36T) (protein)
chain: B1 chain with K37T
notes: as for B1
As to B3, in data set [1] (other: D35G/L36T), the Km was found to be 220 ± 38 µM, the kcat was 4.77 ± 0.617 s⁻¹ and the kcat/Km was 1300 ± 154 mM/min. Moreover, in data set [2] (other: D35G/L36T), the Km came out at 280 ± 16 µM, the kcat was determined as 5.87 ± 0.867 s⁻¹ and the kcat/Km came out at 1257 ± 118 mM/min.

B4: C. glutamicum glyceraldehyde-3-phosphate dehydrogenase (gapA) variant D35G/L36T/P192S (Corynebacterium glutamicum ATCC 13032; D35G/L36T/P192S) (protein)
chain: B1 chain with K37T, P192S
notes: as for B1
For B4, in data set [1] (other: D35G/L36T/P192S), the Km amounted to 120 ± 4 µM, the kcat turned out to be 3.78 ± 0.283 s⁻¹ and the kcat/Km came to 1952 ± 113 mM/min. Further, in data set [2] (other: D35G/L36T/P192S), the Km came to 70 ± 3 µM and the kcat turned out to be 6.58 ± 0.467 s⁻¹.

B5: C. glutamicum glyceraldehyde-3-phosphate dehydrogenase (gapA) variant D35G/L36R/P192S (Corynebacterium glutamicum ATCC 13032; D35G/L36R/P192S) (protein)
chain: B1 chain with T36R, K37T, P192S
notes: as for B1
In the case of B5, in data set [1] (other: D35G/L36R/P192S), the Km came out at 58 ± 2 µM, the kcat is 2.87 ± 0.183 s⁻¹ and the kcat/Km amounted to 2954 ± 228 mM/min. In data set [2] (other: D35G/L36R/P192S), the Km came out at 100 ± 12 µM, the kcat stood at 6.48 ± 0.617 s⁻¹ and the kcat/Km was found to be 3885 ± 247 mM/min.

B6: C. glutamicum glyceraldehyde-3-phosphate dehydrogenase (gapA) variant D35G (Corynebacterium glutamicum ATCC 13032; D35G) (protein)
chain: B1 chain with T36L, K37T
notes: as for B1
In the case of B6, in data set [1] (other: D35G), the Km is 540 ± 70 µM, the kcat stood at 6.37 ± 0.533 s⁻¹ and the kcat/Km turned out to be 707 ± 82 mM/min. In data set [2] (other: D35G), the Km turned out to be 830 ± 120 µM, the kcat came out at 2.97 ± 0.183 s⁻¹ and the kcat/Km turned out to be 215 ± 22 mM/min.

B7: C. glutamicum glyceraldehyde-3-phosphate dehydrogenase (gapA) variant D35G/L36R (Corynebacterium glutamicum ATCC 13032; D35G/L36R) (protein)
chain: B1 chain with T36R, K37T
notes: as for B1
On to B7, for which, in data set [1] (other: D35G/L36R), the Km turned out to be 180 ± 17 µM, the kcat stood at 3.4 ± 0.367 s⁻¹ and the kcat/Km came out at 1134 ± 132 mM/min. Further, in data set [2] (other: D35G/L36R), the Km was found to be 310 ± 34 µM, the kcat is 5.8 ± 0.433 s⁻¹ and the kcat/Km is 1123 ± 176 mM/min.

B8: C. glutamicum glyceraldehyde-3-phosphate dehydrogenase (gapA), Wild-type, SEQ ID NO:1 (Corynebacterium glutamicum ATCC 13032) (protein)
chain: B1 chain with G35D, T36L, K37T
notes: as for B1
Consider B8, for which, in data set [1] (other: Wild-type), the Km stood at 48 ± 2 µM, the kcat stood at 6.45 ± 0.467 s⁻¹ and the kcat/Km turned out to be 8063 ± 540 mM/min.
